Earlier results as cited in article PMC10276003.

Molecular target: GRB2 (Homo sapiens) (UniProt P62993)

Kd: 700 nM
Substance: GRB2 (from UniProt P62993)
